Results as given in patent publication US20190316150A1.

Legend:
Assay in all cases: cell-based or functional assay
[1] = biological target: T1, GFP-AtJAZ^FL (Arabidopsis thaliana) (UniProt Q9LMA8)
T1 sequence: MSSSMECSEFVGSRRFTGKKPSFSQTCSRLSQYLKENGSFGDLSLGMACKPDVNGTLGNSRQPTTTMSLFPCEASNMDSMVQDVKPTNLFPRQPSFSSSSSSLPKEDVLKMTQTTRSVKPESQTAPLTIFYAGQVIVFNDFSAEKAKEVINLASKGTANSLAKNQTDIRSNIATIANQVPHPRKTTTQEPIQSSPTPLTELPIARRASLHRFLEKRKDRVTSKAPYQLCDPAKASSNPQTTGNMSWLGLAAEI

[2] = biological target: OsJAZ^33-p53 (Oryza sativa; human) (UniProt P04637)
[3] = biological target: T2, GFP-OsJAZ^23 (Oryza sativa)
T2 sequence: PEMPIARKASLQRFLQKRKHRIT

[4] = biological target: T3, NLS-GFP-OsJAZ^33 (SV40; Oryza sativa)
T3 sequence: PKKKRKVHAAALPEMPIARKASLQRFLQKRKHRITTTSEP

B1: OsTIR1^F-box-OsCOI1B^LRR (receptor)
chain: MYPYDVPDYATYFPEEVVEHIFSFLPAQRDRNTVSLVCKVWYEIERLSRKHVTVPFCYAASPAHLLARFPRLESLAVKGKPRAAMYGLIPEDWGAYARPWVAELAAPLECLKALHLRRMVVTDDDLAALVRARGHMLQELKLDKCSGFSTDALRLVARSCRSLRTLFLEECSIADNGTEWLHDLAVNNPVLETLNFHMTELTVVPADLELLAKKCKSLISLKISDCDFSDLIGFFRMAASLQEFAGGAFIEQGELTKYGNVKFPSRLCSLGLTYMGTNEMPIIFPFSALLKKLDLQYTFLTTEDHCQLIAKCPNLLVLAVRNVIGDRGLGVVADTCKKLQRLRVERGDDDPGLQEEQGGVSQVGLTTVAVGCRELEYIAAYVSDITNGALESIGTFCKNLCDFRLVLLDREERITDLPLDNGVRALLRGCTKLRRFALYLRPGGLSDTGLGYIGQYSGIIQYMLLGNVGETDDGLIRFALGCENLRKLELRSCCFSEQALARAIRSMPSLRYVWVQGYKASKTGHDLMLMARPFWNIEFTPPSSENANRMREDGEPCVDSQAQILAYYSLAGKRSDCPRSVVPLYPA
[1]
  coronatine-induced GFP degradation, flow cytometry, HEK-293T, pJAZ version 6-AtFL: 95%
[2]
  coronatine-dependent degradation, western blot quantification, H9 hESCs, 50 µM coronatine 1 day: 90%
[3]
  coronatine-dependent GFP degradation, flow cytometry, HEK-293T, pJAZ version 6-Os23: 90%
[4]
  coronatine-induced GFP degradation, flow cytometry, HEK-293T, pJAZ version 7: > 95%
  coronatine-induced degradation, flow cytometry, several cell types carrying pJAZ and pRAIDRS: 90 to 99%
